From article PMC3438964 (The Journal of Biological Chemistry, 2012)
Residue numbers refer to the chain shown, from its start. Names and notes keep the numbering of the source.

Legend:
hUXS1 = target: T1, hUXS1 (Homo sapiens, UniProt Q8NBZ7); test: X-ray crystal structure, […] Å; assay type: binding; settings: SeMet-labelled protein; 5 mM NAD+, 5 mM UDP; coenzyme site
T1 sequence (Q8NBZ7 85-402): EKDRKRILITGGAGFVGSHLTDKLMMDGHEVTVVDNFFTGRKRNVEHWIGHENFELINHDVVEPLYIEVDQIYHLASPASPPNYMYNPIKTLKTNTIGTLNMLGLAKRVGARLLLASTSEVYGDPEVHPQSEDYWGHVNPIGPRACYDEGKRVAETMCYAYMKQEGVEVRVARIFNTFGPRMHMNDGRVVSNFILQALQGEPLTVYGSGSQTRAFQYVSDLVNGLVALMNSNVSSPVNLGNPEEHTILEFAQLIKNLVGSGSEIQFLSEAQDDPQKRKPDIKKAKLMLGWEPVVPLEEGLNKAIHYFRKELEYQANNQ

purified protein = substrate: O=C(O)[C@H]1O[C@H](OP(=O)(O)OP(=O)(O)OC[C@H]2O[C@@H](n3ccc(=O)[nH]c3=O)[C@H](O)[C@@H]2O)[C@H](O)[C@@H](O)[C@@H]1O; test: purified protein; settings: 50 mM Tris/HCl pH 7.5, 25 °C

`NC(=O)c1ccc[n+]([C@@H]2O[C@H](COP(=O)(O)OP(=O)(O)OC[C@H]3O[C@@H](n4cnc5c(N)ncnc54)[C@H](O)[C@@H]3O)[C@@H](O)[C@H]2O)c1` [NAD^+] was tested, and the “X-ray crystal structure, 1.26 Å” value (hUXS1) was “We solved the crystal structure of hUXS1 in complex with NAD^+ and UDP”.

B1: hUXS1 (Homo sapiens) (protein)
chain: T1 sequence (Q8NBZ7 85-402)
For B1, the kcat (purified protein; 0.5 mM NAD+) was 0.2/oxidation^e.

B2: hUXS1 (Homo sapiens; E204A) (protein)
chain: T1 sequence (Q8NBZ7 85-402) with E120A
B2 was tested, and the kcat (purified protein; 10 mM NAD+) was 1.7 × 10^−3/reduction^e.
